Experimental data taken from patent US10597674B2, “HPPD variants and methods of use” (BASF Agricultural Solutions Seed, US LLC, priority 2015, dated 2020).
Read-outs that look alike come from different tables or passages of the source.

What was measured:
[1] = tested on: E. coli cells expressing an HPPD polypeptide; assay: Brown color bioassay in liquid culture, residual brown color formation (BCF), OD440 after 96 hours; assay type: cell-based
Outline: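 E. coli expressing HPPD variants were grown at 30 degrees Celsius from OD600 0.3-0.5 in LB with 5 mM HPP, with or without herbicide (e.g. Cmpd. 1, 1000 μM). After 96 hours, supernatant OD440 was measured; residual brown colour formation compares pigment with and without inhibitor.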

[2] = tested on: HPPD polypeptides (wild-type SEQ ID NO:1 and mutants); conditions: high substrate concentration; for Residual activity: kapp normalized to kapp without inhibitor; for Residual turnover: total change in signal normalized to no inhibitor
[3] = tested on: transgenic soybean T0 events; assay: Additional greenhouse trials of T0 soybean events, leaf damage score 0-100 as percentiles; assay type: in vivo; conditions: wild-type plants, 300 g AI/ha, five days, scale 0-100
Outline: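 Independent T0 events (21 to 94 per construct, single cassette insertion) expressing mutant HPPD were sprayed with HPPD inhibitor herbicide in the greenhouse. Leaf damage scored 5 days after application from 0 (no damage) to 100 (complete bleaching). Scores reported as percentile distributions (25th, median, 75th) per construct.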

[4] = in the presence of Cmpd. 1, 15 μM inhibitor
[5] = in the presence of Cmpd. 2, 15 μM inhibitor
[6] = in the presence of diketonitrile (DKN), 60 μM inhibitor
[7] = in the presence of mesotrione (MST), 60 μM inhibitor

SMILES: CSc1c(C(F)(F)F)ccc(C(=O)Nc2nnnn2C)c1Cl [Cmpd. 1, 2-chloro-3-(methylsulfanyl)-N-(1-methyl-1H-tetrazol-5-yl)-4-(trifluoromethyl)benzamide, reference compound]
- Control BCF OD440nm ([1]; brown color formation in absence of Cmpd. 1, culture supernatant after 96 hours, 5 mM HPP): 2.66
- Residual BCF OD440nm [%] ([1]; brown color formation with Cmpd. 1 (1000 μM) relative to without, after 96 hours): 15%
- Residual activity [2, 4]: 6%
- Residual turnover [2, 4]: 6%
- Residual activity [2, 5]: 8%
- Residual turnover [2, 5]: 8%
- Residual activity [2, 6]: 7%
- Residual turnover [2, 6]: 8%
- Residual activity [2, 7]: 6%
- Residual turnover [2, 7]: 8%
- damage score [3]: 95-100
